Ends that are not written are not given here.
How the values were obtained:
[1] = target: T1, Peptide no. 16 (Figures 7A, 7B) (also: N-terminus acylated); assay: array of terminally truncated, acylated hIL20 peptides on cellulose; fluorescein-labelled antibody; fluorescence as OD
T1 construct: peptide array on cellulose
T1 peptide: DHYTLRKISSLANSFLTIK
Method: (§1) The screenings were done using fluorescence labelled antibodies. The labelling was done by gel-filtering the antibody stock against 1% NaHCO3, using NAP5 column (GE Healthcare according the manual from manufacturer. This was followed by adding 25 mole equivalents of 5(6)-carboxyfluorescein N-hydroxysuccinimide ester (Sigma, C1609) dissolved in DMSO. The coupling was allowed to continue for 2 hours followed by a gelfiltration against TRIS washing buffer (50 mM TRIS, pH=7.4, 0.15M NaCl, 0.1 M ArgHCl, 0.05% Tween 20) in order to removed uncoupled fluorescein.
(§2) Screening of arrays were done by adding 10 μl of antibody to 30 ml incubation buffer (0.5% BSA, 50 mM TRIS, pH=7.4, 0.15M NaCl, 0.1 M ArgHCl, 0.05% Tween 20). The sheets were incubated for 1-2 hours, followed by washing five times with washing buffer. […] The fluorescence intensity were measured and transformed into digits that were exported to Prism 5 (Graph Pad Software, USA) for further analysis.

[2] = target: T2, Peptide no. 49 (Figure 8A); assay: Ala-scan peptide array of hIL20 74-96 on cellulose; fluorescein-labelled antibody; fluorescence as OD
T2 construct: Ala-scan peptide on the array; also called Peptide no; R83A
T2 peptide: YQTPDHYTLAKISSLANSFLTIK
Method: as §1, §2

[3] = target: T3, Peptide no. 56 (Figure 8A); assay: as above
T3 construct: Ala-scan peptide on the array; also called Peptide no; S91A
T3 peptide: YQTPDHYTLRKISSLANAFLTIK
Method: as §1, §2

[4] = target: T4, Peptide no. 52 (Figure 8A); assay: as above
T4 construct: Ala-scan peptide on the array; also called Peptide no; S86A
T4 peptide: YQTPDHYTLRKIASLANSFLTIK
Method: as §1, §2

[5] = target: T5, Peptide no. 44 (Figure 8A); assay: as above
T5 construct: Ala-scan peptide on the array; also called Peptide no; D78A
T5 peptide: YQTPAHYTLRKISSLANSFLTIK
Method: as §1, §2

[6] = target: T6, Peptide no. 47 (Figure 8A); assay: as above
T6 construct: Ala-scan peptide on the array; also called Peptide no; T81A
T6 peptide: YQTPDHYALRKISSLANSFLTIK
Method: as §1, §2

[7] = target: T7, Peptide no. 53 (Figure 8A); assay: as above
T7 construct: Ala-scan peptide on the array; also called Peptide no; S87A
T7 peptide: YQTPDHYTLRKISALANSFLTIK
Method: as §1, §2

[8] = target: T8, Peptide no. 57 (Figure 8A); assay: as above
T8 construct: Ala-scan peptide on the array; also called Peptide no; F92A
T8 peptide: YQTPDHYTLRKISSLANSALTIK
Method: as §1, §2

[9] = target: T9, Peptide no. 45 (Figure 8A); assay: as above
T9 construct: Ala-scan peptide on the array; also called Peptide no; H79A
T9 peptide: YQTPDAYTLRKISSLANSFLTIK
Method: as §1, §2

[10] = target: T10, Peptide no. 59 (Figure 8A); assay: as above
T10 construct: Ala-scan peptide on the array; also called Peptide no; T94A
T10 peptide: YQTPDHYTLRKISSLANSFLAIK
Method: as §1, §2

[11] = target: T11, Peptide no. 58 (Figure 8A); assay: as above
T11 construct: Ala-scan peptide on the array; also called Peptide no; L93A
T11 peptide: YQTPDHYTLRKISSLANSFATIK
Method: as §1, §2

[12] = target: T12, Peptide no. 42 (Figure 8A); assay: as above
T12 construct: Ala-scan peptide on the array; also called Peptide no; T76A
T12 peptide: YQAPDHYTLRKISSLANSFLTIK
Method: as §1, §2

[13] = target: T13, Peptide no. 43 (Figure 8A); assay: as above
T13 construct: Ala-scan peptide on the array; also called Peptide no; P77A
T13 peptide: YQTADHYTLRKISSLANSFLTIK
Method: as §1, §2

[14] = target: T14, Peptide no. 54 (Figure 8A); assay: as above
T14 construct: Ala-scan peptide on the array; also called Peptide no; L88A
T14 peptide: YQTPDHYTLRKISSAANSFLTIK
Method: as §1, §2

[15] = target: T15, Peptide no. 50 (Figure 8A); assay: as above
T15 construct: Ala-scan peptide on the array; also called Peptide no; K84A
T15 peptide: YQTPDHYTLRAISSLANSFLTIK
Method: as §1, §2

[16] = target: T16, Peptide no. 48 (Figure 8A); assay: as above
T16 construct: Ala-scan peptide on the array; also called Peptide no; L82A
T16 peptide: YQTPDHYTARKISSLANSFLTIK
Method: as §1, §2

[17] = target: T17, Peptide no. 55 (Figure 8A); assay: as above
T17 construct: Ala-scan peptide on the array; also called Peptide no; N90A
T17 peptide: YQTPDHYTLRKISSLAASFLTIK
Method: as §1, §2

[18] = target: T18, Peptide no. 41 (Figure 8A); assay: as above
T18 construct: Ala-scan peptide on the array; also called Peptide no; Q75A
T18 peptide: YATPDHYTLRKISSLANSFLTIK
Method: as §1, §2

[19] = target: T19, Peptide no. 46 (Figure 8A); assay: as above
T19 construct: Ala-scan peptide on the array; also called Peptide no; Y80A
T19 peptide: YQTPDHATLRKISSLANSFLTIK
Method: as §1, §2

[20] = target: T20, Peptide no. 60 (Figure 8A); assay: as above
T20 construct: Ala-scan peptide on the array; also called Peptide no; I95A
T20 peptide: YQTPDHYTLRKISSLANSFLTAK
Method: as §1, §2

[21] = target: T21, Peptide no. 51 (Figure 8A); assay: as above
T21 construct: Ala-scan peptide on the array; also called Peptide no; I85A
T21 peptide: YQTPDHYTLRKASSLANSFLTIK
Method: as §1, §2

Measured: binding result

B1: human anti-hIL20 monoclonal antibody 15D2 (antibody, V domains shown)
VH: QVQLVQSGAEVKRPGASVKVSCKASGYTFTNDIIHWVRQAPGQRLEWMGWINAGYGNTQYSQNFQDRVSITRDTSASTAYMELISLRSEDTAVYYCAREPLWFGESSPHDYYGMDVWGQGTTVTVSS
VL: AIQLTQSPSSLSASVGDRVTITCRASQGISSALAWYQQKPGKAPKLLIYDASSLESGVPSRFSGSGSGTDFTLTISSLQPEDFATYYCQQFNSYPLTFGGGTKVEIKR
notes: also called 15D2-wt; 15D2 wild-type
binds: [1]

B2: human anti-hIL20 monoclonal antibody 5B7 (antibody, human IgG4, V domains shown)
VH: QVQLVQSGAEVKRPGASVKVSCKASGYTFSSHIMHWVRQAPGQRLEWMGWINAGYGNTKYSQNFQDRVTITRDTSASTAYMELISLRSEDTAVYYCAREPLWFGELSPHDYYGMDVWGQGTTVTVSS
VL: AIQLTQSPSSLSASVGDRVTITCRASQGISSALAWYQQKPGKAPKLLIYDASSLESGVPSRFSGSGSGTDFTLTISSLQPEDFATYYCQQFNSYPLTFGGGTKVEIKR
notes: described as human IgG4; also called 5B7-wt
not listed: [1]
binds: all other assays above

Source: patent publication US20130039923A1 (Novo Nordisk, published 2013)
